Source: the PETadex activity labels

Substrate: BHET
Details: 120 h

Protein	plate clearing
unnamed (protein) MFPYVAVRVTEETNSRRTTLSNKAATRVSFNRQETDVKFKFVKTALVAAAMACSASAFAQYQKGPDPTTSSLERAGSFATRTLNVSSLSASGFGGGRIWYPTASGSYGVVAVSPGFTGTASTMYFWGERLSSHGFVVIVIETNTLYDQPDSRARQLTSALNYVVSQGNSRTSALYGKVDGNRRAVAGHSMGGGGTLIAAADNPSLKAAIPMAPWNLSSLSFSRIRVPTFIFSCQSDAIAPVAQHSNPFYNAIPSTTSKNLVEMRLDDHFCVMNGGGHYETLGKLGIAWVKRFVDQDTRYSKFLCGNEYNSTVRSTEVSSNRNNCPY	not clears the plate
unnamed (protein) MKTIERGQRRCAVGLGLLLLAAAAHAQTNPLAKGPDPTSALLNANAGPFAIASTAVPSSVAGFGGGTVYYPTAAGSYATVAICPGFTATQSSIAWIGQRMASHGFVAMTINTNSTFDQPPSRATQLMAALRYLTNSSNSTVRARVDASRLGVAGHSMGGGGTLMAARDNTTLKAAVPLTPWSQTKSFSTVRVPTLVVGAENDTVAPVAQHSIPFYTSLPASLDKAYAELNNASHFAPNSTNTAIGRYSVAWVKRFMDNDTRYEPFLCGAPHTAFATPTVFSDYRSTCPYQ	not clears the plate
unnamed (protein) MKNTAFRKVSVVAVTFLLSVTAFAGGGGGGGGDNSGALPLPDTCNSNCGYELGPNPSLSFVQANRGPQPTTTTNVSSSVDGFGGGTIYYPTNISQEMAAISIAPGFTNTQSAVAWWGPVLASHGFVVITIDTNGRFDQPESRSRQLDAALNHLISESDRSSSPISGLVDRNRLATMGFSMGGGGSLRSASRNRLSAAVPLAPWSVGGNNFNQIGVPTMIMACENDGTAGINQHARPFYNAIPGSTDKVYLEINDGPHNCANGNNINNATLSTYGVSWMKRFLDKDRRFNQFLCGPNHEANSRISQFRDTCLF	not clears the plate
unnamed (protein) MRETSLHRSPAPALAQACTRAASRLRFAALGLAAGLLSLAAQAQINPDQRGPNPTAASLEATAGPYAVKTSKVASQSNFGGGTVYFPDSNEGPFGVIAIAPGFTEGQSVNSWWGNRLASHGFVVITASMKNVLQYPTPRAKELVAALNYVVAQSQTSGSPYFGKVDPARRGVMGHSMGGGGTLEVVRDDPTIKAAIPLAPWDLSKVFTQVTTPTLIVACEKDAIAPVNTHASTFYDSLSASLDKAFLELKGADHFCTNTSTTAARKTVLGKYGVAWMKRFIDSDTRYAPFLCGATHEAYLSASSSVISRYKSSCPY	not clears the plate
unnamed (protein) MKIKNRTACTTAAPSPARRRLAMASLAAAGLLCSFTAQAQVAVFQENFTSGLGSFTAAGSATNSSGAARLAGCYGCTDGAITSGPISTVGFSSLSLSFDRVTSGLDIGEGGIAEYSTNGSTWTALETTRATSNGRVTFNLPAAAAGQTGLRLRFRIDANLSSETYTVDNIQLTGISGDGGGTNPHAKGPAPTASLLEASTGPFTYASTNVSSLSADGYGGATIFHPTNVAGPFAAIAISPGYTGTKSTMTWWGERLASHGFVVAVIDTNSIYDQPYQRAPQLMAALRQLVTFSNTSSHPIYRKVDPNRLGVMGHSMGGGGTLIAARDNPTLKAAIPLAPWNTSTNFSSVSVPTLVVACESDSIAPVNSHASPFYNSLPSSTRKAFMEMNNGDHFCVMNGNDFTRIMGKYGVAWMKRFLDNDTRYSPFLCGAQHQADLSNSQLSEYRENCPY	clears the plate (z > 3 vs empty vector)
unnamed (protein) MKTTVSRIKGLSVAAAMALASLATPALSQTSAPTSASLNATSGPLSVSTASVLLPVGFGGGTIYYPTVAGKYGVIAISPGFTATQSSIAWLGRRIATHGFVVITMNTITTLDQPDSRATQLMAALRYVLNSSGTAVRARIDSTRLAVAGHSMGGGGSLIAARDNPTLKASYPMTPWNLSTNFSTVRVPTMIIGADGDTIAPVAVHARPFYASLPSSTYKAYGELNNGTHFSPNSTNTPIGRYAVAWMKRFVDGDTRYSPFLCGAEHAAYATGWVFDRYNQNCPY	not clears the plate
unnamed (protein) MEMFVVPKINITFNEVAVMPSSIPVKILTGVCSLLFSVSAFSFTPSPDPDPDPGPGPCQEDCDFTRGPNPTSNYLEASSGPYNVSTIGVSRSVSGFGGGTVHYPQGTTGTMGAIAIVPGFLAGESSIAWWGPRLASHGFVVITIATNSTFDQPGSRSTQLGRALDYVINLSNSSSSPISGMVDSTRVAAMGWSMGGGGTLRLASGGRLSAAIPLAPWNTGSNSFNQITTPTLILACENDSTAPVSVHASPFYNRIPSSTDKAYLEINNGSHSCANGGGANGGLLGKYGVSWMKRFIDDDARYSQFLCGPNHQANSAISEYRDTCNY	not clears the plate
